± gives the uncertainty stated by the source.
B1: Tudor domain-containing protein 3, residues 554 to 611; numbered along this chain, Q9H7E2 (parent)
chain: KMWKPGDECFALYWEDNKFYRAEVEALHSSGMTAVVKFIDYGNYEEVLLSNIKPIQTE

Variants of: B1
Test: abundance fitness (aPCA) (normalised: wild type 0, dead -1); higher = more abundant; growth selection in yeast, the domain comes from the species named
Details: Homo sapiens

Row | Variant | abundance fitness
1 | I52H | -1.04 ± 0.34
2 | I52E | -0.911 ± 0.12
3 | I52K | -0.974 ± 0.43
4 | I52M | 0.028 ± 0.12
5 | I52Y | -0.923 ± 0.16
6 | I52L | 0.032 ± 0.067
7 | I52G | -0.895 ± 0.064
8 | I52S | -0.853 ± 0.089
9 | I52V | -0.184 ± 0.063
10 | I52W | -0.81 ± 0.11
11 | I52Q | -1.01 ± 0.19
12 | I52P | -0.639 ± 0.12
13 | I52A | -0.824 ± 0.093
14 | N43D | -0.259 ± 0.14
15 | N43C | -0.059 ± 0.085
16 | N43G | -0.162 ± 0.045
17 | N43T | 0.073 ± 0.078
18 | N43S | -0.045 ± 0.069
19 | N43L | 0.01 ± 0.064
20 | N43R | 0.091 ± 0.048
21 | N43Y | 0.003 ± 0.15

Row | Variant | abundance fitness
22 | N43F | -0.052 ± 0.19
23 | N43H | -0.073 ± 0.17
24 | N43P | -0.563 ± 0.11
25 | N43W | -0.059 ± 0.058
26 | N43K | 0.093 ± 0.094
27 | N43E | -0.079 ± 0.061
28 | N43V | 0.035 ± 0.057
29 | N43M | -0.108 ± 0.071
30 | K53G | -0.711 ± 0.065
31 | K53N | -0.378 ± 0.087
32 | K53C | -0.238 ± 0.087
33 | K53D | -0.659 ± 0.092
34 | K53Y | -0.214 ± 0.087
35 | K53T | -0.109 ± 0.096
36 | K53R | 0.008 ± 0.06
37 | K53E | -0.261 ± 0.079
38 | K53H | -0.213 ± 0.11
39 | K53P | -0.809 ± 0.15
40 | K53L | -0.217 ± 0.07
41 | K53M | -0.192 ± 0.12
42 | K53W | -0.242 ± 0.12

Row | Variant | abundance fitness
43 | K53Q | -0.12 ± 0.1
44 | K53A | -0.276 ± 0.062
45 | K53I | -0.145 ± 0.092
46 | K53F | -0.229 ± 0.088
47 | K53V | -0.194 ± 0.057
48 | S50N | -0.217 ± 0.086
49 | S50D | 0.026 ± 0.084
50 | S50Q | -0.115 ± 0.11
51 | S50A | 0.019 ± 0.077
52 | S50R | -0.155 ± 0.056
53 | S50T | 0.059 ± 0.086
54 | S50I | -0.192 ± 0.094
55 | S50Y | -0.437 ± 0.097
56 | S50G | -0.155 ± 0.054
57 | S50W | -0.585 ± 0.08
58 | S50M | -0.255 ± 0.09
59 | S50F | -0.605 ± 0.093
60 | S50K | 0.03 ± 0.08
61 | S50V | -0.082 ± 0.063
62 | S50L | -0.523 ± 0.074
63 | S50E | -0.118 ± 0.083

Row | Variant | abundance fitness
64 | S50C | -0.08 ± 0.076
65 | S50P | -0.548 ± 0.082
66 | S50H | 0.048 ± 0.11
67 | E58V | -0.136 ± 0.084
68 | E58N | 0.049 ± 0.29
69 | E58S | 0.113 ± 0.11
70 | E58D | -0.058 ± 0.081
71 | E58I | -0.187 ± 0.23
72 | E58K | -0.024 ± 0.2
73 | E58A | -0.133 ± 0.085
74 | E58H | -0.304 ± 0.12
75 | E58Y | -0.157 ± 0.25
76 | E58M | -0.175 ± 0.14
77 | E58R | -0.111 ± 0.12
78 | E58L | -0.183 ± 0.12
79 | E58C | -0.062 ± 0.16
80 | E58Q | -0.252 ± 0.29
81 | E58W | -0.068 ± 0.24
82 | E58F | -0.314 ± 0.24
83 | E58T | -0.037 ± 0.23
84 | E58G | -0.042 ± 0.082
